Test results from patent US20100080799.

B1: co-expressed N-motif and C-motif of the WSTF kinase domain (protein)
chain 1: MAPLLGRKPFPLVKPLPGEEPLFTIPHTQEAFRTREEYEARLERYSERIWTCKSTGSSQLTHKEAWEEEQEVAELLKEEFPAWYEKLVLEMVHHNTASLEKLVDTAWLEIMTKYAVGEECDFEVGKEKMLKVKIVKIHPLEKVDEEATEKKSDGACDSPSSDKENSSQIAQDHQKKETVVKEDEGRRESINDRARRSPRKLPTSL
chain 2: GERKWAPPKFLPHKYDVKLQNEDKIISNVPADSLIRTERPPNKEIVRYFIRHNALRAGTGENAPWVVEDELVKKYSLPSKFSDFLLDPYKYMTLNPSTKRKNTGSPDRKPSKKSKTDNSSLSSPLNPKLWCHVHLKKS
B2: recombinant WSTF 1-359 C338A point mutant (protein)
chain: MAPLLGRKPFPLVKPLPGEEPLFTIPHTQEAFRTREEYEARLERYSERIWTCKSTGSSQLTHKEAWEEEQEVAELLKEEFPAWYEKLVLEMVHHNTASLEKLVDTAWLEIMTKYAVGEECDFEVGKEKMLKVKIVKIHPLEKVDEEATEKKSDGACDSPSSDKENSSQIAQDHQKKETVVKEDEGRRESINDRARRSPRKLPTSLKKGERKWAPPKFLPHKYDVKLQNEDKIISNVPADSLIRTERPPNKEIVRYFIRHNALRAGTGENAPWVVEDELVKKYSLPSKFSDFLLDPYKYMTLNPSTKRKNTGSPDRKPSKKSKTDNSSLSSPLNPKLWAHVHLKKSLSGSPLKVKNSKNS
B3: recombinant WSTF 1-345 construct (protein)
chain: MAPLLGRKPFPLVKPLPGEEPLFTIPHTQEAFRTREEYEARLERYSERIWTCKSTGSSQLTHKEAWEEEQEVAELLKEEFPAWYEKLVLEMVHHNTASLEKLVDTAWLEIMTKYAVGEECDFEVGKEKMLKVKIVKIHPLEKVDEEATEKKSDGACDSPSSDKENSSQIAQDHQKKETVVKEDEGRRESINDRARRSPRKLPTSLKKGERKWAPPKFLPHKYDVKLQNEDKIISNVPADSLIRTERPPNKEIVRYFIRHNALRAGTGENAPWVVEDELVKKYSLPSKFSDFLLDPYKYMTLNPSTKRKNTGSPDRKPSKKSKTDNSSLSSPLNPKLWCHVHLKKS
B4: recombinant full length human WSTF (Flag-epitope-tagged at C terminus) (protein)
chain: MAPLLGRKPFPLVKPLPGEEPLFTIPHTQEAFRTREEYEARLERYSERIWTCKSTGSSQLTHKEAWEEEQEVAELLKEEFPAWYEKLVLEMVHHNTASLEKLVDTAWLEIMTKYAVGEECDFEVGKEKMLKVKIVKIHPLEKVDEEATEKKSDGACDSPSSDKENSSQIAQDHQKKETVVKEDEGRRESINDRARRSPRKLPTSLKKGERKWAPPKFLPHKYDVKLQNEDKIISNVPADSLIRTERPPNKEIVRYFIRHNALRAGTGENAPWVVEDELVKKYSLPSKFSDFLLDPYKYMTLNPSTKRKNTGSPDRKPSKKSKTDNSSLSSPLNPKLWCHVHLKKSLSGSPLKVKNSKNSKSPEEHLEEMMKMMSPNKLHTNFHIPKKGPPAKKPGKHSDKPLKAKGRSKGILNGQKSTGNSKSPKKGLKTPKTKMKQMTLLDMAKGTQKMTRAPRNSGGTPRTSSKPHKHLPPAALHLIAYYKENKDREDKRSALSCVISKTARLLSSEDRARLPEELRSLVQKRYELLEHKKRWASMSEEQRKEYLKKKREELKKKLKEKAKERREKEMLERLEKQKRYEDQELTGKNLPAFRLVDTPEGLPNTLFGDVAMVVEFLSCYSGLLLPDAQYPITAVSLMEALSADKGGFLYLNRVLVILLQTLLQDEIAEDYGELGMKLSEIPLTLHSVSELVRLCLRRSDVQEESEGSDTDDNKDSAAFEDNEVQDEFLEKLETSEFFELTSEEKLQILTALCHRILMTYSVQDHMETRQQMSAELWKERLAVLKEENDKKRAEKQKRKEMEAKNKENGKVENGLGKTDRKKEIVKFEPQVDTEAEDMISAVKSRRLLAIQAKKEREIQEREMKVKLERQAEEERIRKHKAAAEKAFQEGIAKAKLVMRRTPIGTDRNHNRYWLFSDEVPGLFIEKGWVHDSIDYRFNHHCKDHTVSGDEDYCPRSKKANLGKNASMNTQHGTATEVAVETTTPKQGQNLWFLCDSQKELDELLNCLHPQGIRESQLKERLEKRYQDIIHSIHLARKPNLGLKSCDGNQELLNFLRSDLIEVATRLQKGGLGYVEETSEFEARVISLEKLKDFGECVIALQASVIKKFLQGFMAPKQKRRKLQSEDSAKTEEVDEEKKMVEEAKVASALEKWKTAIREAQTFSRMHVLLGMLDACIKWDMSAENARCKVCRKKGEDDKLILCDECNKAFHLFCLRPALYEVPDGEWQCPACQPATARRNSRGRNYTEESASEDSEDDESDEEEEEEEEEEEEEDYEVAGLRLRPRKTIRGKHSVIPPAARSGRRPGKKPHSTRRSQPKAPPVDDAEVDELVLQTKRSSRRQSLELQKCEEILHKIVKYRFSWPFREPVTRDEAEDYYDVITHPMDFQTVQNKCSCGSYRSVQEFLTDMKQVFTNAEVYNCRGSHVLSCMVKTEQCLVALLHKHLPGHPYVRRKRKKFPDRLAEDEGDSEPEAVGQSRGRRQKK
B5: recombinant WSTF 1-340 construct (protein)
chain: MAPLLGRKPFPLVKPLPGEEPLFTIPHTQEAFRTREEYEARLERYSERIWTCKSTGSSQLTHKEAWEEEQEVAELLKEEFPAWYEKLVLEMVHHNTASLEKLVDTAWLEIMTKYAVGEECDFEVGKEKMLKVKIVKIHPLEKVDEEATEKKSDGACDSPSSDKENSSQIAQDHQKKETVVKEDEGRRESINDRARRSPRKLPTSLKKGERKWAPPKFLPHKYDVKLQNEDKIISNVPADSLIRTERPPNKEIVRYFIRHNALRAGTGENAPWVVEDELVKKYSLPSKFSDFLLDPYKYMTLNPSTKRKNTGSPDRKPSKKSKTDNSSLSSPLNPKLWCHV

How the values were obtained:
[1] = target: recombinant H2A.X (WT), N-terminal 6xHis tag
[2] = target: recombinant H2A.X Y142F, N-terminal 6xHis tag

Protein | kinase activity (in vitro kinase assay) [1] | other results
B1 | The co-expressed N-motif and C-motif had significant kinase activity towards H2A.X | 
B2 | the activity of a point mutant at C338 (C338A) was greatly diminished (<50 fold, FIG. 3F) | 
B3 | the 1-345 amino acid construct of WSTF had much more potent kinase activity (>50 fold) than the 1-340 construct | in vitro kinase assay [2]: its activity towards a Y142F mutant was much reduced
B4 |  | in vitro kinase assay [1]: Full length recombinant WSTF proteins isolated from insect cells phosphorylated free H2A.X protein in the presence of Mn^2+; in vitro kinase assay (32P autoradiography) [1]: The recombinant full length WSTF protein phosphorylated H2A.X-containing nucleosomes; in vitro kinase assay (32P autoradiography) [2]: WSTF phosphorylated the WT but not Y142F H2A.X
B5 | the activity of the 1-340 amino acid construct was much reduced (<50 fold) in comparison to the other constructs | 
